Measured values from patent US20260184780A1 (MONASH UNIVERSITY, published 2026).
Each block holds one binder with its values, some of them ahead of it.

Columns and labels:
[1] = target: T1, human PAR4 on isolated human platelets (human, UniProt Q96RI0 18-385); assay: cell-based or functional assay
T1 sequence: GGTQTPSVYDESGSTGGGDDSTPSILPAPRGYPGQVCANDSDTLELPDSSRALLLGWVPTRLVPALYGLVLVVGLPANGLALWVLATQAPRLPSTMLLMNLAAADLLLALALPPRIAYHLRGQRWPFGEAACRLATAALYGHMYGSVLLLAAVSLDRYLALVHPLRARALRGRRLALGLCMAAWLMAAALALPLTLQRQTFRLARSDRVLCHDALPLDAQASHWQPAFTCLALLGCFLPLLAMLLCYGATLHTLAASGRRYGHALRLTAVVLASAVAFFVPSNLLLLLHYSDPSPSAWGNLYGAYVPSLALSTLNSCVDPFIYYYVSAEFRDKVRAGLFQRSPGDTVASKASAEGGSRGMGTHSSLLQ

[2] = target: T1, human PAR4 on isolated human platelets; assay: flow cytometry on isolated human platelets
hPAR1 (Biotin) peptide [3] = target: T2, hPAR1 (Biotin) peptide (human, not fully specified; biotin on the C-terminal lysine (SKB)); assay: ELISA, biotinylated peptide on streptavidin plate, absorbance 405 nm
T2 construct: also called PAR1 peptide; PAR1 screening peptide
T2 peptide: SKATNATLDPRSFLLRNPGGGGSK
Description: (§1) Biotinylated peptides (hPAR1-4) were diluted in Wash buffer and allowed to bind to the blocked Streptavidin coated wells at 10 ug/ml (100 ul per well) for 1 hour at room temperature with gentle mixing. Wells were washed 3 times as above and purified anti-hPAR4 mAbs prepared at 10 ug/ml in Wash buffer were allowed to bind (100 ul/well) for 1 hour at room temperature with gentle mixing. The plate was washed 3 times as above and anti-mouse Fc conjugated to Alkaline phosphatase (AP) at 0.3 ug/ml (100 ul) was added to the wells for 1 hour as above. Wells were washed 3 times as above and developed with Alkaline Phosphatase substrate as described for the screening supernatant ELISA.
(§2) To further characterise the purified anti-hPAR4 mAb's the specificity of the mAbs to hPAR1, hPAR2, hPAR3 and hPAR4 biotinylated peptides was performed.

hPAR2 (Biotin) peptide [4] = target: T3, hPAR2 (Biotin) peptide (human, not fully specified; biotin on the C-terminal lysine (SKB)); assay: as above
T3 construct: also called PAR2 peptide; PAR2 screening peptide
T3 peptide: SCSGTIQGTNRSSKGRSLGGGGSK
Description: as §1, §2

hPAR3 (Biotin) peptide [5] = target: T4, hPAR3 (Biotin) peptide (human, biotin on the C-terminal lysine (SKB)); assay: as above
T4 construct: also called PAR3 peptide; PAR3 screening peptide
T4 peptide: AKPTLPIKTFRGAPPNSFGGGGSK
Description: as §1, §2

hPAR4 1-9 peptide = target: T5, hPAR4 1-9 peptide (human); assay: ELISA, peptide coated on the plate, purified mAb, background subtracted
T5 construct: Range counted on the hPAR4 immunising peptide; also called peptide 1-9
T5 peptide: GDDSTPSIL
Description: (§3) Briefly the peptides were coated onto a Nunc maxisorp ELISA plate at 10 ug/ml overnight in coating buffer (0.1 M sodium carbonate pH8.0). Purified mAbs diluted in PBS were used in place of supernatant.

hPAR4 (naked) peptide [6] = target: T6, hPAR4 (naked) peptide (human); assay: ELISA, purified mAb on hPAR4 peptide coated wells, anti-mouse Fc-AP, absorbance 405 nm
T6 construct: also called native PAR4 peptide; hPAR4 peptide
T6 peptide: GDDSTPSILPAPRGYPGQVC
Description: The experiment was completed with purified mAbs diluted in PBS instead of hybridoma supernatants.
The reactivity of seven purified anti-hPAR4 mAbs was analysed by ELISA (see Table 4).

[7] = target: T1, human PAR4 on isolated human platelets; assay: cell-based or functional assay; remark: listed apart in the source
hPAR4 (naked) peptide [8] = target: T6, hPAR4 (naked) peptide; assay: ELISA, hybridoma supernatant
hPAR1 (Biotin) peptide [9] = target: T2, hPAR1 (Biotin) peptide; assay: ELISA, hybridoma supernatant
hPAR3 (Biotin) peptide [10] = target: T4, hPAR3 (Biotin) peptide; assay: ELISA, hybridoma supernatant
hPAR4 (naked) peptide [11] = target: T6, hPAR4 (naked) peptide; assay: ELISA, purified mAb on hPAR4 peptide
hPAR4 (Biotin) peptide [12] = target: T7, hPAR4 (Biotin) peptide (human, biotin on the C-terminal lysine (SKB)); assay: SPR Biacore T200, biotin peptide on SA chip, whole mAb as analyte
T7 construct: also called hPAR4-biotinylated peptide; biotin-coupled human PAR4 peptide
T7 peptide: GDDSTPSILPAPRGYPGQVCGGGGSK
Description: (§4) The kinetics of the binding interaction between the mAbs and hPAR4 was measured using Surface Plasmon Resonance (SPR; Biacore) by two different methods: 1. Anti-mouse Fc mAb capture method and 2. Streptavidin (SA) chip to capture biotinylated peptide. The ka(on) rate and kd(off) rates and KD were measured and fitted to a Langmuir model using the Biacore evaluation software.

hPAR4 (Biotin) peptide [13] = target: T7, hPAR4 (Biotin) peptide; assay: SPR Bio-Rad ProteOn XPR36, biotin peptide captured, purified mAb as analyte
hPAR4 (naked) peptide [14] = target: T6, hPAR4 (naked) peptide; assay: SPR Biacore T200, mAb captured by anti-mouse Fc, hPAR4 peptide as analyte
Description: A series S CM5 sensor chip was activated with standard EDC/NHS amine coupling chemistry using the manufacturers recommended protocol with Goat anti-mouse IgG Fc. Anti-hPAR4 mAbs were captured at 1-2 ug/ml for 2 minutes at 10 ul/minute on flow cell 2 (FC2) and flow cell 1 (FC1) was used as a reference channel. […] Blank injections of buffer alone were also performed. All injections were performed in duplicate and in a random order.
as §4

hPAR4 8-15 peptide = target: T8, hPAR4 8-15 peptide (human); assay: ELISA, peptide coated on the plate, purified mAb, background subtracted
T8 construct: Range counted on the hPAR4 immunising peptide; also called peptide 8-15; core peptide
T8 peptide: ILPAPRGY
Description: as §3

hPAR4 11-20 peptide = target: T9, hPAR4 11-20 peptide (human); assay: as above
T9 construct: Range counted on the hPAR4 immunising peptide; the C-terminal cysteine was removed, so nine residues are given; also called peptide 11-20
T9 peptide: APRGYPGQV
Description: as §3

hPAR1 (Biotin) peptide [15] = target: T2, hPAR1 (Biotin) peptide; assay: ELISA, hybridoma supernatant on immobilised peptide, binding as fold above control
Description: (§5) Wells were then washed with an automated plate washer (300 μl 1×PBS, 3 times). […] Wells were washed as above. A set of substrate tablets (1×silver, 1×gold) into 20 ml of ddH₂O by shaking vigorously on the thermomixer for 6 mins at room temperature. 50 μl of substrate ([…]™ […] Tablets (Sigma-Aldrich, N2770-50SET)) was added into each well and incubated for 20-25 mins at room temperature. 50 μl of STOP solution (2M Sodium Hydroxide, Solid (NaOH) (Merck, Cas #1310-73-2)) was added into each well to stop the reaction. Absorbance was read at 405 nm immediately after adding STOP solution with the ELISA reader, using the ‘RdrOle4’ software.
(§6) In order to determine the specificity of the anti-hPAR4 clones to PAR4, ELISA screening was performed as described above.

hPAR2 (Biotin) peptide [16] = target: T3, hPAR2 (Biotin) peptide; assay: as above
Description: as §5, §6

hPAR3 (Biotin) peptide [17] = target: T4, hPAR3 (Biotin) peptide; assay: as above
Description: as §5, §6

- platelet aggregation, % of control [1]: < 50 % of control
- GMFI at 10 ug/ml over isotype control [2]: 53
- binding result (hPAR1 (Biotin) peptide [3]): no binding (tested: 10 ug/ml)
- binding result (hPAR2 (Biotin) peptide [4]): no binding (tested: 10 ug/ml)
- binding result (hPAR3 (Biotin) peptide [5]): no binding (tested: 10 ug/ml)
- binding result (hPAR4 1-9 peptide): no binding
- EC50 (read off the curve) (hPAR4 (naked) peptide [6]): ~0.1 µg/mL
B1: 5F.RF3.A7b.C9 (antibody, IgG2b, V domains shown)
VH: QVQLVQSGAEVKKPGASVKVSCKTSAYTFTNYGISWVRQAPGQGLEWMGWISPYNGNTNYAQKLQGRVTMTTDTSTRTAYMELRSLRSDDTAVYYCAREYNRSSRGRYYYYGMDVWGQGTTVTVSS
VL: EIVLTQSPGTLSLSPGERATLSCRASQSVSSNYLAWYQKKPGQAPRLLISGASSRATGIPDRFSGSGSGTDFTLTISRLEPEDFAVYYCQQYGSSPWTFGQGTKVEIK
notes: also called MoB5F-RF3.A7b.C9; MoB5F F3

- IC50 (ug/ml) for inhibition of platelet aggregation, 0.1 U/ml thrombin [7]: 1.6 µg/mL
- binding to PAR4 ratio (hPAR4 (naked) peptide [8]): 15.2 ratio
- binding to PAR1 ratio (hPAR1 (Biotin) peptide [9]): 1 ratio
- binding to PAR3 ratio (hPAR3 (Biotin) peptide [10]): 1.1 ratio
- ELISA Pos:Neg ratio (hPAR4 (naked) peptide [11]): 13.9 ratio
- GMFI at 10 ug/ml over isotype control [2]: 39
- Kd (hPAR4 (Biotin) peptide [12]): 0.32 nM
- koff (hPAR4 (Biotin) peptide [12]): 0.000417 s⁻¹
- kon (hPAR4 (Biotin) peptide [12]): 1.32e+06 M⁻¹ s⁻¹
- Kd (hPAR4 (Biotin) peptide [13]): ~0.4 nM
- Kd (hPAR4 (naked) peptide [14]): 14.8 nM
- koff (hPAR4 (naked) peptide [14]): 0.00487 s⁻¹
- kon (hPAR4 (naked) peptide [14]): 330000 M⁻¹ s⁻¹
- binding result (hPAR4 1-9 peptide): no binding
- binding result (hPAR4 8-15 peptide): binds
- binding result (hPAR4 11-20 peptide): no binding
- binding result (hPAR1 (Biotin) peptide [15]): no binding
- binding result (hPAR2 (Biotin) peptide [16]): no binding
- binding result (hPAR3 (Biotin) peptide [17]): no binding
B2: 5A.RC3.F10b.H4b (antibody, IgG2a, V domains shown)
VH: QVQLVESGGGVVQPGRSLRLSCAASGFTLSNYGMHWVRQAPGKGLEWVSVIWYDGSNKHYADSVKGRFTISRDNSKNTLYLQMNSLRAEDTAVYYCARESIVEVLPPFDYWGQGTLVTVSS
VL: KIVLTQSPGTLSLSPGERVTLSCRASQRVRNNYLAWFQQKPGQAPRLFIYGASSRATGIPDRFSGSGSGTDFIFTISRLEPEDFAVYYCQQYGNSYTFGQGTKLEIK
notes: also called MoB5ARC3; MoB5A-RC3.F10b.H4b
